The target of assay [1] is T1, cytoplasmic domain-lacking human NR10 on CHO cells (human, UniProt Q8NI17 20-553).
T1 construct: The construct lacks the cytoplasmic domain; also called hNR10-expressing CHO cells; hNR10
T1 sequence: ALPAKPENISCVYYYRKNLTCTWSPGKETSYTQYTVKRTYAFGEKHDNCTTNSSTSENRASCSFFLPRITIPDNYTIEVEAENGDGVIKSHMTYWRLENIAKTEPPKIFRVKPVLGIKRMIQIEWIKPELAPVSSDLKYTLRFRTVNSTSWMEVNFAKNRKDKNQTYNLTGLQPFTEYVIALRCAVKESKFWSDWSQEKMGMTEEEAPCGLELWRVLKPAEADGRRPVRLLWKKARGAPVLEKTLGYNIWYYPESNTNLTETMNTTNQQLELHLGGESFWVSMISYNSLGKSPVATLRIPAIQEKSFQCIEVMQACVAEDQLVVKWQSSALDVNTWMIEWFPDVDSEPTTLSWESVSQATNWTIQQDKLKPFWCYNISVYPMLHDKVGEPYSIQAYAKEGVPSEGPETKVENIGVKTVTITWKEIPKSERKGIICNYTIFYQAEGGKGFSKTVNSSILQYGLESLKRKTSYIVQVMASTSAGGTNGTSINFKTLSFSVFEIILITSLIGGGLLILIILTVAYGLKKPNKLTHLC
Nature of the assay: FMAT competition on hNR10-expressing CHO cells; blocked ligand: FMAT Blue-labeled hIL-31; mean +/- S.D. (n=3). Here is the method: Antibodies were assessed for the activity of inhibiting the IL-31/NR10 binding by using hNR10-expressing CHO cells as described below. The chimeric NS22 antibody and NS22_H0L0 (H chain, H0-SKSC/SEQ ID NO: 54; L chain, L0/SEQ ID NO: 56) were diluted at an appropriate concentration using Assay buffer (10 mM HEPES, 140 mM NaCl, 2.5 mM CaCl₂, 3 mM MgCl₂, 2% FBS, 0.01% NaN₃, pH7.4), and further eight serial dilutions were prepared at a common dilution ration of 2. The dilutions were added at 40 μl/well to plates (96-Well FMAT Plates, Applied Biosystems). Then, FMAT Blue-labeled hIL-31 was diluted 400 times with Assay buffer, and added at 20 μl/well. Finally, a cell suspension adjusted to 2.5×10⁵ cells/ml using Assay buffer was added at 40 μl/well (final 1×10⁴ cells/well). Two hours after addition of cells, the fluorescence (FL1) was measured using the 8200 Cellular Detection System (Applied Biosystems).
Each variant was tested for the activity of inhibiting the hIL-31/hNR10 binding by using FMAT. The test was carried out according to the method as described in Example 4.

Assay [2] has as its target T2, rhNR10 (human, UniProt Q8NI17 20-519, limits assumed).
T2 construct: also called recombinant human NR10; IL-31 receptor
T2 sequence: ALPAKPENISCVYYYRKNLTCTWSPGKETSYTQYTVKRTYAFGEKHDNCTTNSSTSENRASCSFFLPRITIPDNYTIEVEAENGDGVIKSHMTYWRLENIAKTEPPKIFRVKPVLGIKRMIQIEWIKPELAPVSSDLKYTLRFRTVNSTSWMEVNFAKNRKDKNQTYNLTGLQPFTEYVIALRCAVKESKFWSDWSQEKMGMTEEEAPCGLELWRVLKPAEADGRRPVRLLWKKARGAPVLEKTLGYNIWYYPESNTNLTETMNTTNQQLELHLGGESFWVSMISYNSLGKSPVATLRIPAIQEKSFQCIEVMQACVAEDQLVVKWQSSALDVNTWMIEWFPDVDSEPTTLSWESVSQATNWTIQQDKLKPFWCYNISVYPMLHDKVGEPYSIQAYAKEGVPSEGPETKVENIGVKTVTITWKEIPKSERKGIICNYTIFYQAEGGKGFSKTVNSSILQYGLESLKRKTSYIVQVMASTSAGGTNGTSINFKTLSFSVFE
Nature of the assay: SPR (Biacore T100): antibody captured on Protein A, rhNR10 as analyte. The protocol: Kinetic analysis of the antigen-antibody reaction was carried out using Biacore T100 (GE Healthcare Biosciences). The antigen-antibody interaction was measured by immobilizing rec-Protein A (hereinafter Protein A) (ZYMED) onto a sensor chip, capturing an antibody on the immobilized Protein A, and then reacting the antigen as an analyte. Various concentrations of rhNR10 were used as the antigen. The kinetic parameters, association rate constant kₐ (1/Ms) and dissociation rate constant kd (1/s), were calculated from the sensorgrams obtained by the measurement. Then, KD (M) was determined based on the rate constants. Each parameter was determined using Biacore T100 Evaluation Software version 1.1 (GE Healthcare Biosciences).
The running buffer used was HBS-EP+. Each antibody was prepared at 0.25 μg/ml, or prepared so that about 100 RU would bind to Protein A. rhNR10 used as an analyte was prepared at 0, 38.5, 77.0, and 154 nM, or at 0, 19.25, and 77.01 nM using HBS-EP+. In the measurement, first, the antibody solution was captured on Protein A, and an analyte solution was reacted at a flow rate of 20 μL/min for three minutes. Then, the solution was switched to HBS-EP+, and the dissociation phase was measured for five minutes. […] The obtained sensorgrams were kinetically analyzed using the Biacore-specific data analysis software, Biacore T100 Evaluation Software Version 1.1.
A general note: SPR reads the build-up and loss of mass on a sensor chip optically.

Assay [3] addresses T3, soluble human FcRn (human, UniProt P55899 24-290; P16213 21-119).
T3 construct: The stated ranges include the signal regions; also called hFcRn; complex of FcRn and β2-microglobulin
Nature of the assay: SPR (Biacore 3000), pH 6.0: antibody captured on the chip, human FcRn as analyte, steady state affinity. The protocol:
The binding to human FcRn was assessed using Biacore 3000.
The affinity was calculated using BIAevaluation software. The obtained sensorgram was used to calculate the amount of hFcRn bound to the antibody immediately before the end of human FcRn injection. This was fitted by the steady state affinity method to calculate the affinity of human FcRn for the antibody.
The binding activities of huPM1-IgG1 and huPM1-M58 to human FcRn were assessed using BIAcore.

T3 sequence (P55899 24-290 limits assumed, chain 1 of 2): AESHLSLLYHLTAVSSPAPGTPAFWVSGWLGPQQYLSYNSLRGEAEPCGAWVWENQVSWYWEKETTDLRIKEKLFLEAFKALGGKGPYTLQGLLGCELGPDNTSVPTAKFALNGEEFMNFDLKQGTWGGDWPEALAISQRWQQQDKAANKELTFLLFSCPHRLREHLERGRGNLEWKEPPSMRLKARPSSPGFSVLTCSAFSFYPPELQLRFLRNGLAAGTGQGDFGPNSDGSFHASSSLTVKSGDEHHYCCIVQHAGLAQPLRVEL
T3 sequence (P16213 21-119 limits assumed, chain 2 of 2): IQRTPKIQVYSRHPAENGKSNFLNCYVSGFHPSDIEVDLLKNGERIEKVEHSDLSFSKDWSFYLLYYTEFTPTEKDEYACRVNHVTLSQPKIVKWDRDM

B1: Hp9 variant of H0L0 (antibody, V domains shown)
VH: QVQLVQSGAEVKKPGASVKVSCKASGYTFTGYIMNWVRQAPGQGLEWMGLINPYNGGTSYNQQFKGRVTITADESTSTAYMELSSLRSEDTAVYYCARDGYDDGPYTMDYWGQGTLVTVSS
VL: DIQMTQSPSSLSASVGDRVTITCRTSENIYSFLAWYQQKPGKAPKLLIYNAKTLAKGVPSRFSGSGSGTDFTLTISSLQPEDFATYYCQHHYESPLTFGGGTKVEIKR
notes: Variant of H0L0; also called Hp9-VH
Consider B1, for which the “IC50 (read off the curve)” value in assay [1] was ~0.09 µg/mL.

B2: H0L12 (H chain, H0-M58; L chain, L12) (antibody, V domains shown)
VH: QVQLVQSGAEVKKPGASVKVSCKASGYTFTGYIMNWVRQAPGQGLEWMGLINPYNGGTSYNQKFKGRVTITADESTSTAYMELSSLRSEDTAVYYCARDGYDDGPYTMDYWGQGTLVTVSS
VL: DIQMTQSPSSLSASVGDRVTITCQTSEDIYSFVAWYQQKPGKAPKLLIYNAQTEAQGVPSRFSGSGSGTDFTLTISSLQPEDFATYYCQHHYDSPLTFGGGTKVEIKR
Consider B2, for which, in assay [2], the “fold affinity against H0L0” value is ~2 times.

B3: huPM1-M58 (humanized anti-IL-6 receptor antibody with constant region M58) (antibody)
heavy: QVQLQESGPGLVRPSQTLSLTCTVSGYSITSDHAWSWVRQPPGRGLEWIGYISYSGITTYNPSLKSRVTMLRDTSKNQFSLRLSSVTAADTAVYYCARSLARTTAMDYWGQGSLVTVSSASTKGPSVFPLAPSSKSTSGGTAALGCLVKDYFPEPVTVSWNSGALTSGVHTFPAVLQSSGLYSLSSVVTVPSSNFGTQTYTCNVDHKPSNTKVDKTVERKSCVECPPCPAPPVAGPSVFLFPPKPKDTLMISRTPEVTCVVVDVSQEDPEVQFNWYVDGVEVHNAKTKPREEQFNSTFRVVSVLTVVHQDWLNGKEYKCKVSNKGLPAPIEKTISKTKGQPREPQVYTLPPSQEEMTKNQVSLTCLVKGFYPSDIAVEWESNGQPENNYKTTPPMLDSDGSFFLYSKLTVDKSRWQEGNVFSCSVMHEALHNHYTQKSLSLSP
light: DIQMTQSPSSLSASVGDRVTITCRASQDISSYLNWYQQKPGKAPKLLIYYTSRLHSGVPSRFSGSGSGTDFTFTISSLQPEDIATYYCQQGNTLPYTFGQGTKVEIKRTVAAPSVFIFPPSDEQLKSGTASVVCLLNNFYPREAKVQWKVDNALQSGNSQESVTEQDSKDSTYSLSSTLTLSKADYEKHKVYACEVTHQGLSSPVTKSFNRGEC
notes: copies: 2 + 2
As for B3, the “fold binding activity against huPM1-IgG1” value in assay [3] is ~1.4 times.

Values taken from patent US20110229459A1 (Chugai, published 2011).
